Reference: patent US20050148511A1

How the values were obtained:
[1] = target: FGFR3IIIc expressed on FDCP cells; experiment: cell-based or functional assay
[2] = target: FGFR1 expressed on FDCP cells; experiment: cell-based or functional assay

EC50 (effective concentration), mitogenicity on FGFR-transfected FDCP cells [1] [ng/mL]	EC50 (effective concentration), mitogenicity on FGFR-transfected FDCP cells [2] [ng/mL]	Substance
4.2	2.65	wild type FGF-2 (from UniProt P09038 1-155) (ligand)
0.3 to 0.65	0.35 to 1	FGF2(3,5Q)-N111G (ligand)
